This data set has as its system series of eight synthetic peptides with sequences found in and around the C-proteinase cleavage sites of -Ala-Asp- and -Gly-Asp- in the four pro-alpha chains of types I, II and III procollagen.

One substance from US6562613 can be followed below.

In the case of “C-proteinase (enzyme used on the synthetic peptide substrates; source not stated)”, the “cleavage of synthetic peptides, HPLC followed by laser desorption mass spectrometry” value is “four of the eight propeptides were specifically and completely cleaved by the enzyme”.
